{"source": "patent US20220332804A1", "about": "(CSL INNOVATION, published 2022)", "binders": {"B1": {"name": "RF16-226 (antibody, human IgG4 S228P, lambda)", "heavy": "not shown", "light": "SYELTQPPSVSVSPGQTARITCSGDALTSKYVAWYQQKSGLAPLLVIYEDTRRPSGIPAKFSGSSSGSVATLTISGAHGDDEADYYCYSTDASGHQRVFGGGTKLTVLSQPKAAPSVTLFPPSSEELQANKATLVCLISDFYPGAVTVAWKADGSPVKAGVETTKPSKQSNNKYAASSYLSLTPEQWKSHRSYSCQVTHEGSTVEKTVAPTECS", "notes": "pH-dependent anti-C2 antibody from a phage display library; also called WT"}}, "experiment_in_all_cases": "SPR, antibody captured, C2 as analyte;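 also: biacore SPR at 37 °C, anti-C2 mAbs captured via goat anti-human IgG on CM5 chips, double-referenced sensorgrams fit to a 1:1 kinetic or steady-state model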", "key": {"[1]": {"target": "T1, human C2 E275A (human, UniProt P06681 21-752)", "T1 sequence": "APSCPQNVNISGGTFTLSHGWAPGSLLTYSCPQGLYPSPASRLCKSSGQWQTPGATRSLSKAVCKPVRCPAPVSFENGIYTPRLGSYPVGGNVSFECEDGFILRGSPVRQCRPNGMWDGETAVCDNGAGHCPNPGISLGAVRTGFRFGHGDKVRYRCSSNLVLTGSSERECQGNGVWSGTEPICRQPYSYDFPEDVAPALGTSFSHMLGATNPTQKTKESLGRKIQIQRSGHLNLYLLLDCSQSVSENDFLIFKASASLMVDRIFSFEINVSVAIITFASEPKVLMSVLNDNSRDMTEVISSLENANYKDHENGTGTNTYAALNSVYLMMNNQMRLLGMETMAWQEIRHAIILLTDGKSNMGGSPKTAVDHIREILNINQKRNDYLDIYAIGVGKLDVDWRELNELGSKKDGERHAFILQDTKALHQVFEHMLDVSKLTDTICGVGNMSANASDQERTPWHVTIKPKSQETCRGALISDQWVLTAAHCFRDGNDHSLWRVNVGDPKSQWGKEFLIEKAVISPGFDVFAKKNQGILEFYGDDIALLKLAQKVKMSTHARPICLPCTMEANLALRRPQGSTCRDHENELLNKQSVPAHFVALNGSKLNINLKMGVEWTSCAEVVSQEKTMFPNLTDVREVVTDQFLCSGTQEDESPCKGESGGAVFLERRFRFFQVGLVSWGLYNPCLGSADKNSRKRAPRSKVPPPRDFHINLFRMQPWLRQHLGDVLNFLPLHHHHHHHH"}, "[2]": {"target": "T2, human C2 N327A (human, UniProt P06681 21-752)", "T2 sequence": "T1 sequence with A255E, N307A"}, "[3]": {"target": "T3, human C2 D417A (human, UniProt P06681 21-752)", "T3 sequence": "T1 sequence with A255E, D397A"}, "[4]": {"target": "T4, human C2 L453A (human, UniProt P06681 21-752)", "T4 sequence": "T1 sequence with A255E, L433A"}}, "note": "Numbering of substitutions follows the chain as printed.", "data": [{"binder": "B1", "values": [{"measurement": "Kd", "setting": "[1]", "value": 9.4, "unit": "nM"}, {"measurement": "Kd", "setting": "[2]", "value": 67.4, "unit": "nM"}, {"measurement": "Kd", "setting": "[3]", "value": 17.9, "unit": "nM"}, {"measurement": "Kd", "setting": "[4]", "value": 29.9, "unit": "nM"}]}]}
